From article PMC8227597 come the findings set out here.

The Kd is a measure of binding affinity in units of concentration. Lower therefore signals a tighter complex.

For the test, the target named is Biotinylated human ACE2 (angiotensin-converting enzyme 2) (human) (UniProt Q9BYF1). Briefly: SPR.

The substance “Trimer spike of SARS-CoV-2, furin cleavage site deleted and two stabilizing mutations, C-terminal His-tag (domain or fragment)” registered a Kd of 0.7 nM.
